Data: paper PMC10340229, “EpoR Activation Stimulates Erythroid Precursor Proliferation by Inducing Phosphorylation of Tyrosine-88 of the CDK-Inhibitor p27^Kip1” (Cells, 2023)
Substitutions are numbered along the chain they refer to. Names may count otherwise. One block for each binder: values may come before it.

How the values were obtained:
[1] = target: T1, bacterially expressed recombinant p27 (full–length p27) (human, UniProt P46527 1-198); assay: pull-down; GST fusion proteins bound on glutathione Sepharose beads incubated for 2 h at 4 °C with purified bacterial p27, p27 mutants or p27 fragments; extensive washing; bound p27 detected by Western blot; settings: both partners purified
T1 construct: p27^Kip1 (CDKN1B), human, full length; No tag is named for the full-length protein; also called purified p27; source: bacteria, purified by heat treatment (95 °C, ultracentrifugation)

[2] = target: T2, GST–hIC EpoR (273–508aa), cytoplasmic domain of human EpoR (human, UniProt P19235 273-508); assay: as above; settings: both partners purified
T2 construct: also called GST–EpoR; source: E. coli BL21, purified on glutathione Sepharose beads
T2 sequence (looked up): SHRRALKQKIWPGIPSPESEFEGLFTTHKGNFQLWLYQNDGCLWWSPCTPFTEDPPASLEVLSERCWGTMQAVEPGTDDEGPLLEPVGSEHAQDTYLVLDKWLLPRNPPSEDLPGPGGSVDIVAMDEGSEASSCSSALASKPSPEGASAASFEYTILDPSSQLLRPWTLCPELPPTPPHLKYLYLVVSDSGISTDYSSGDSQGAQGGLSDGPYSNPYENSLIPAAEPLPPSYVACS

binding result [1]: binds
B1: GST–hIC EpoR N (273–433aa) (domain or fragment, human, UniProt P19235 273-433, looked up)
chain: SHRRALKQKIWPGIPSPESEFEGLFTTHKGNFQLWLYQNDGCLWWSPCTPFTEDPPASLEVLSERCWGTMQAVEPGTDDEGPLLEPVGSEHAQDTYLVLDKWLLPRNPPSEDLPGPGGSVDIVAMDEGSEASSCSSALASKPSPEGASAASFEYTILDPSS
notes: also called N–terminal truncated cytoplasmic domain of EpoR; source: E. coli BL21, purified on glutathione Sepharose beads

binding result [2]: binds
B2: p27 ΔSH3 (amino acids 94, 95, 96 PPK to GCA) (natural protein, human, UniProt P46527 1-198, looked up)
chain: MSNVRVSNGSPSLERMDARQAEHPKPSACRNLFGPVDHEELTRDLEKHCRDMEEASQRKWNFDFQNHKPLEGKYEWQEVEKGSLPEFYYRPPRGCAGACKVPAQESQDVSGSRPAAPLIGAPANSEDTHLVDPKTDPSDSQTGLAEQCAGIRKRPATDDSSTQNKRANRTEENVSDGSPNAGSVEQTPKKPGLRRRQT
notes: p27^Kip1 (CDKN1B), human, with point mutations in the proline-rich region; also called p27 ∆SH3; ΔSH3 mutant; source: bacteria, purified by heat treatment

binding result [2]: binds
B3: p27 CK– (R30A, L32A, F62A, F64A) (natural protein, human, UniProt P46527 1-198, looked up)
chain: B2 chain with R30A, L32A, F62A, F64A, G94P, C95P, A96K
notes: p27^Kip1 (CDKN1B), human, with four point mutations; source: bacteria, purified by heat treatment
